Among the data in the supplement of paper PMC10598134 are collision cross section values, retold here.

A short description of the data set: collision cross section of modified peptide (TIMS, N2, iRT-aligned); higher = larger / more extended gas-phase ion. Here is the method:
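1/K0 was aligned run-wise to spiked iRT peptides and converted to CCS in N2 (Mason-Schamp). Values are the mean of 1-3 technical replicates for the most abundant feature at each charge state.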

Where [1] appears, read: charge state: 2, modification: Phospho (Y).
Where [2] appears, read: charge state: 2, modification: Acetyl (K).
The mark [3] stands for this setting: charge state: 2, modification: Crotonyl.
Setting [4] is: charge state: 3, modification: Crotonyl.
Setting [5] is: charge state: 2, modification: Butyryl.
Setting [6] is: charge state: 2, modification: Malonyl.
Where [7] appears, read: charge state: 2, modification: Methyl (K).
[8] abbreviates: charge state: 3, modification: Methyl (K).
Setting [9] is: charge state: 3, modification: Acetyl (K).
Where [10] appears, read: charge state: 2, modification: GlyGly (K).
[11] abbreviates: charge state: 3, modification: GlyGly (K).
Setting [12] is: charge state: 2, modification: Glutarylation.
[13] abbreviates: charge state: 3, modification: Propionyl.
The mark [14] stands for this setting: charge state: 3, modification: Butyryl.
The mark [15] stands for this setting: charge state: 2, modification: Succinyl.
The mark [16] stands for this setting: charge state: 3, modification: Succinyl.
The mark [17] stands for this setting: charge state: 2, modification: Propionyl.
The mark [18] stands for this setting: charge state: 2, modification: hydroxyisobutyryl.
Setting [19] is: charge state: 3, modification: hydroxyisobutyryl.
[20] abbreviates: charge state: 2, modification: Trimethyl (K).
The mark [21] stands for this setting: charge state: 3, modification: Trimethyl (K).
Where [22] appears, read: charge state: 2, modification: Nitro (Y).

± gives the standard deviation.

In the case of “LGGDLGTYVINK [_LGGDLGTY(Phospho (Y))VINK_]”, the collision cross section under setting [1] was found to be 375.25 ± 0.063 Å².
Sequence GEVQVSDKER [_GEVQVSDK(Acetyl (K))ER_] gave a collision cross section under setting [2] of 356.44 ± 0.96 Å².
On the same count and under the same terms, for “INNFSADIKDSK [_INNFSADIK(Acetyl (K))DSK_]” the value was 398.34 ± 0.77 Å².
Regarding “VYIASSSGSTAIKK [_VYIASSSGSTAIK(Crotonyl)K_]”, the collision cross section was found to be 419.06 ± 0.81 Å² under setting [3] and 505.65 ± 0.46 Å² under setting [4].
Under setting [5], “DLGKFQVATDALK [_DLGK(Butyryl)FQVATDALK_]” returned a collision cross section of 411.4 ± 0.85 Å².
Under “charge state: 2, modification: Citrullination (R)”, “GEGGFGGRGGGR [_GEGGFGGR(Citrullination (R))GGGR_]” showed a collision cross section of 329.76 ± 0.38 Å².
Regarding SEASSEFAKK [_SEASSEFAK(Malonyl)K_], the collision cross section under setting [6] was 350.91 ± 0.74 Å².
With “SPSDSGYSYETIGKTTK [_SPSDSGYSYETIGK(Methyl (K))TTK_]”, the collision cross section by setting is: under setting [7], 466.86 ± 1.2 Å²; under setting [8], 512.24 ± 3.8 Å².
On to “DSINFLDHINGKK [_DSINFLDHINGK(Acetyl (K))K_]”, for which, under setting [9], the collision cross section is given as 470.59 Å².
As to “VTLEVGKVIQQGR [_VTLEVGK(Acetyl (K))VIQQGR_]”, the collision cross section by setting is: under setting [2], 405.94 ± 0.47 Å²; under setting [9], 479.97 ± 2.5 Å².
As to DHLSDKESK [_DHLSDK(Methyl (K))ESK_], the collision cross section is 345.4 ± 1.5 Å² under setting [7] and 413.72 ± 4.7 Å² under setting [8].
Consider “DESFLGKLGGTLAR [_DESFLGK(GlyGly (K))LGGTLAR_]”, for which the collision cross section by setting is: under setting [10], 437.68 ± 0.96 Å²; under setting [11], 486.51 ± 1.1 Å².
Take “SLFFGGKGAPLQR [_SLFFGGK(Gluratylation)GAPLQR_]”: the collision cross section worked out at 407.53 ± 0.99 Å² under setting [12] and 479.63 ± 1.2 Å² (charge state: 3, modification: Glutarylation).
With “FGTINIVHPKLGSYTK [_FGTINIVHPK(Methyl (K))LGSYTK_]”, the collision cross section under setting [7] came out at 470.37 Å² and the collision cross section under setting [8] amounted to 541.06 ± 0.45 Å².
“VSPASSVDSNIPSSQGYKK [_VSPASSVDSNIPSSQGYK(Propionyl)K_]” registered a collision cross section under setting [13] of 557.31 Å².
For the setting “charge state: 2, modification: Methyl (R)”, RGVGAGAIAK [_R(Methyl (R))GVGAGAIAK_] yielded a collision cross section of 328.76 ± 0.75 Å².
Take “ANLEKAQAELVGTADEATR [_ANLEK(Butyryl)AQAELVGTADEATR_]”: the collision cross section by setting is: under setting [5], 479.49 ± 1.1 Å²; under setting [14], 578.23 ± 2 Å².
Take “ITESVAETAQTIKK [_ITESVAETAQTIK(Succinyl)K_]”: the collision cross section runs as follows: under setting [15], 424.69 ± 1.1 Å²; under setting [16], 512.63 ± 2.6 Å².
Turning to LGNDFHTNKR [_LGNDFHTNK(Propionyl)R_], the collision cross section reads like this: under setting [17], 374.29 Å²; under setting [13], 447.46 ± 0.59 Å².
As for “ANEKTESSSAQQVAVSR [_ANEK(Biotin)TESSSAQQVAVSR_]”, the collision cross section reads like this: (charge state: 2, modification: Biotin) 464.95 ± 0.23 Å²; (charge state: 3, modification: Biotin) 569.61 ± 0.95 Å².
LDEKENLSAK [_LDEK(GlyGly (K))ENLSAK_] registered a collision cross section under setting [10] of 379.07 ± 1.5 Å² and a collision cross section under setting [11] of 437.31 ± 1.9 Å².
Turning to DHLSDKESK [_DHLSDK(Succinyl)ESK_], the collision cross section under setting [15] stood at 350.32 ± 1.6 Å² and the collision cross section under setting [16] is 416.05 ± 0.88 Å².
In the case of “LFVGGIKEDTEEHHLR [_LFVGGIK(hydroxyisobutyryl)EDTEEHHLR_]”, the collision cross section reads like this: under setting [18], 501.81 Å²; under setting [19], 546.81 ± 1.2 Å².
For the sequence “DYSSGFGGKYGVQADR [_DYSSGFGGK(Methyl (K))YGVQADR_]”, the collision cross section amounted to 432 Å² under setting [7] and 489.11 ± 2.4 Å² under setting [8].
For “EVVKPVPITSPAVSK [_EVVKPVPIT(HexNAc (ST))SPAVSK_]”, the collision cross section runs as follows: (charge state: 2, modification: HexNAc (ST)) 445.83 ± 0.56 Å²; (charge state: 3, modification: HexNAc (ST)) 512.07 ± 2.8 Å².
Turning to “DAEAAEATAEGALKAEK [_DAEAAEATAEGALK(Crotonyl)AEK_]”, the collision cross section was 474.87 ± 0.81 Å² under setting [3] and 545.42 ± 1.3 Å² under setting [4].
For “FDDTNPEKEEAK [_FDDTNPEK(Propionyl)EEAK_]”, the collision cross section under setting [17] worked out at 396.96 ± 0.65 Å².
As for “YEEIVKEVSTYIK [_YEEIVK(Succinyl)EVSTYIK_]”, the collision cross section under setting [15] turned out to be 438.13 ± 0.83 Å².
Consider “ALASIDSKLNQAK [_ALASIDSK(Trimethyl (K))LNQAK_]”, for which the collision cross section runs as follows: under setting [20], 417.47 ± 0.6 Å²; under setting [21], 444.8 ± 1.8 Å².
On to “SSFAYKDQNENR [_SSFAYK(GlyGly (K))DQNENR_]”, for which the collision cross section is, setting by setting: under setting [10], 412.56 ± 1.4 Å²; under setting [11], 465.62 ± 2 Å².
As for SDDESSQKDIK [_SDDESSQK(Butyryl)DIK_], the collision cross section under setting [5] turned out to be 378.95 ± 0.72 Å².
In the case of “PSVGSQSNQAGQGKR [_PSVGSQSNQAGQGK(Methyl (K))R_]”, the collision cross section by setting is: under setting [7], 426.09 ± 2.3 Å²; under setting [8], 471.73 ± 2.8 Å².
Regarding GEVQVSDKER [_GEVQVSDK(Propionyl)ER_], the collision cross section under setting [17] was determined as 360.54 ± 0.33 Å².
Consider “DAEAAEATAEGALKAEK [_DAEAAEATAEGALK(hydroxyisobutyryl)AEK_]”, for which the collision cross section by setting is: under setting [18], 435.11 ± 0.29 Å²; under setting [19], 547.8 ± 2.1 Å².
The sequence “AGPNASIISLKSDK [_AGPNASIISLK(Gluratylation)SDK_]” returned a collision cross section under setting [12] of 416.83 ± 0.49 Å².
As for SPDEAYAIAKK [_SPDEAYAIAK(Crotonyl)K_], the collision cross section reads like this: under setting [3], 376.34 ± 0.8 Å²; under setting [4], 442.81 ± 1.6 Å².
Consider “TTGFYSGFSEVAEKR [_TTGFYSGFSEVAEK(Butyryl)R_]”, for which, under setting [5], the collision cross section is recorded as 442.26 ± 0.29 Å².
On the same count and under the same terms, next, VFSIISSEKELK [_VFSIISSEK(Butyryl)ELK_]: 413.27 ± 0.78 Å².
Take GDPGLIGPK [_GDP(Hydroxyproline)GLIGPK_]: where the note is “charge state: 2, modification: Hydroxyproline”, the collision cross section came out at 312.86 ± 1.3 Å².
As to “FVDSKVGEFSGANK [_FVDSK(Formyl)VGEFSGANK_]”, where the note is “charge state: 2, modification: Formyl”, the collision cross section amounted to 406.35 Å².
ALLQAKASGK [_ALLQAK(Dimethyl (K))ASGK_] showed a collision cross section (charge state: 2, modification: Dimethyl (K)) of 351.53 ± 0.51 Å².
“LQDVSGQLSSSKK [_LQDVSGQLSSSK(Butyryl)K_]”: the collision cross section is, setting by setting: under setting [5], 401.39 ± 0.74 Å²; under setting [14], 476.47 ± 3.2 Å².
For “AGQKLIDVNHYAK [_AGQK(hydroxyisobutyryl)LIDVNHYAK_]”, the collision cross section under setting [18] amounted to 436.67 ± 0.29 Å² and the collision cross section under setting [19] is on record as 483.82 ± 2.8 Å².
LLEQKTQESQK [_LLEQK(Malonyl)TQESQK_] returned a collision cross section under setting [6] of 397.91 ± 0.65 Å².
Under setting [18], “ASEALLKQLK [_ASEALLK(hydroxyisobutyryl)QLK_]” yielded a collision cross section of 382.21 ± 0.28 Å².
On to “LQAAYAGDKADDIQK [_LQAAYAGDK(Butyryl)ADDIQK_]”, for which the collision cross section runs as follows: under setting [5], 436.77 ± 0.53 Å²; under setting [14], 489.7 ± 2.9 Å².
As for “VVPGYGHAVLR [_VVPGY(Phospho (Y))GHAVLR_]”, the collision cross section reads like this: under setting [1], 386.55 ± 0.062 Å²; (charge state: 3, modification: Phospho (Y)) 451.71 Å².
“LQAAYAGDKADDIQK [_LQAAYAGDK(Acetyl (K))ADDIQK_]”: the collision cross section under setting [2] is listed as 429.91 ± 2.1 Å² and the collision cross section under setting [9] came to 488.96 ± 0.48 Å².
Take “DYSSGFGGKYGVQADR [_DYSSGFGGK(Trimethyl (K))YGVQADR_]”: the collision cross section came out at 437.78 ± 0.016 Å² under setting [20] and 486.86 ± 1.8 Å² under setting [21].
“SGNLTEDDKHNNAK [_SGNLTEDDK(Dimethyl (K))HNNAK_]” returned a collision cross section (charge state: 3, modification: Dimethyl (K)) of 479.84 ± 1.3 Å².
For “IVSGKDYNVTANSK [_IVSGK(Methyl (K))DYNVTANSK_]”, the collision cross section reads like this: under setting [7], 411.95 ± 2 Å²; under setting [8], 471.19 ± 3.6 Å².
The sequence “ILDLKTGTVK [_ILDLK(hydroxyisobutyryl)TGTVK_]” yielded a collision cross section under setting [18] of 366.99 ± 1.3 Å².
“VTPHPSPRGSPLPTPK [_VTPHPSPR(Methyl (R))GSPLPTPK_]” yielded a collision cross section (charge state: 3, modification: Methyl (R)) of 512.12 ± 9.6 Å².
Take “SNEEGSEEKGPEVR [_SNEEGSEEK(Succinyl)GPEVR_]”: under setting [15], the collision cross section was 403.42 ± 0.55 Å².
On to “TVSKVDDFLANEAK [_TVSK(Crotonyl)VDDFLANEAK_]”, for which the collision cross section under setting [3] is on record as 421.27 ± 0.55 Å².
As for THLAPYSDELR [_THLAPY(Nitro (Y))SDELR_], the collision cross section reads like this: under setting [22], 377.13 ± 2.5 Å²; (charge state: 3, modification: Nitro (Y)) 453.98 ± 1.8 Å².
For the sequence “ANEKTESSSAQQVAVSR [_ANEK(Butyryl)TESSSAQQVAVSR_]”, the collision cross section was 441.41 ± 1.7 Å² under setting [5] and 534.65 ± 3.5 Å² under setting [14].
Sequence VYSLFLDESR [_VY(Nitro (Y))SLFLDESR_] had a collision cross section under setting [22] of 377.85 ± 0.17 Å².
